In assay [1] the target is PKM2 (mouse (endogenous in ImKCs)) (UniProt P52480). As to the kind of experiment: native gel or EMSA; ImKCs treated with vehicle or DPI (50 and 500 nM) for 1 h (also 6 and 12 h); proteins extracted in Native PAGE sample buffer with 1% digitonin, run on native PAGE, anti-PKM2 Western blotting.
Assay [2] shares this target. As to the kind of experiment: cross-linking; DSS crosslinking followed by Western blotting, after DPI treatment; also with the ERK1/2 inhibitor SCH772984.

Several values for one entry are separate records, joined by “and”; a condition that tells them apart may be missing. Equal values may be shown once.

Chain of PKM2, P52480-1 1-531 (enzyme; other documents disagree on this pair) (P52480 whole entry): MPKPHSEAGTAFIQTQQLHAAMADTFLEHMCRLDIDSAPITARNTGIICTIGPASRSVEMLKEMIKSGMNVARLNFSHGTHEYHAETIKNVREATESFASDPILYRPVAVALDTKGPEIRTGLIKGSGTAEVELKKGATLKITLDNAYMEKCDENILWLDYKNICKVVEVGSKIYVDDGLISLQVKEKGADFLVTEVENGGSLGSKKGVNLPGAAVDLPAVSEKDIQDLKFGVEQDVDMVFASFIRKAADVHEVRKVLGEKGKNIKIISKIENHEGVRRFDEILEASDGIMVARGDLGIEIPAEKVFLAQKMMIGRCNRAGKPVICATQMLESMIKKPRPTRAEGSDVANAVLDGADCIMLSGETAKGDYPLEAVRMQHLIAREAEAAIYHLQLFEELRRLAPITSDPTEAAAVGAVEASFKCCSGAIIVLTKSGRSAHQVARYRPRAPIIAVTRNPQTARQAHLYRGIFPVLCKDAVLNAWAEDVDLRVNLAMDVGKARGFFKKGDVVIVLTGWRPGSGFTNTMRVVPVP

“PKM2, P52480-1 1-531 (enzyme; other documents disagree on this pair)”: the stoichiometry N in assay [1] was 2 and 4; in assay [2] it was 2.

The values above are taken from publication PMC10821868.
